Consider three substances from doi:10.1101/2023.10.27.564453.

The target of this assay is MIK2 ectodomain (MIK2^LRR), residues 45-707, 6 x His-MBP tagged (Arabidopsis thaliana) (UniProt Q8VZG8). Description: MST.
UniProt Q8VZG8, sequence (Q8VZG8 45-707): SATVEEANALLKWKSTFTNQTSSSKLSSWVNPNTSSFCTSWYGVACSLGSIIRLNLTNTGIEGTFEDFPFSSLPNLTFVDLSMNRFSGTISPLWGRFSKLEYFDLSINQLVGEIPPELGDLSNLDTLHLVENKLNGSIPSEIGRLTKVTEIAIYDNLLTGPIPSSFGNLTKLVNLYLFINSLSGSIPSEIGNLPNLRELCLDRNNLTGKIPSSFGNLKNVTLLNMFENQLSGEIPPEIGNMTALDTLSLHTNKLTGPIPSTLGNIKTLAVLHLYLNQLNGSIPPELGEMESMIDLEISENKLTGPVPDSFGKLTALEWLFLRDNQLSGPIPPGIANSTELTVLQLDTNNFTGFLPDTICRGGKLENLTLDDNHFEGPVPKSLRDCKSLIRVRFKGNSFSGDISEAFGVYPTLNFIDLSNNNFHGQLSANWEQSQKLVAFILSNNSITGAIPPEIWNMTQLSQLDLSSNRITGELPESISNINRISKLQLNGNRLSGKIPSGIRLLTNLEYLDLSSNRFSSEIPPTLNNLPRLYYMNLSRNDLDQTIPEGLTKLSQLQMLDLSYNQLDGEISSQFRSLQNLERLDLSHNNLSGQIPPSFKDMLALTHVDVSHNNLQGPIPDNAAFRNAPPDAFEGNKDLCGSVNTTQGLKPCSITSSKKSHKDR

Broadly, the Kd is a measure of binding affinity in units of concentration. A low value points to a tighter complex. For the substance “5-FAM-SCOOP10 peptide (SCOOP10#2, N-terminally 5-FAM labelled) (from UniProt Q9LU08 30-98)”, the Kd was 13.5 nM.

“5-FAM-SCOOP12 peptide (N-terminally 5-FAM labelled) (from UniProt B3H7I1 44-78)” showed a Kd of 22 nM. As a reminder, the Ki is the equilibrium dissociation constant of an inhibitor or competing ligand from its target. The substance “SCOOP12 peptide (unlabelled) (from UniProt B3H7I1 44-78)” came in with a Ki of 40.1 nM.
